B1: somatostatin TSE I (dsDNA)
DNA 1: TTGCGAGGCTAATGGTGCG
DNA 2: CGCACCATTAGCCTCGCAA
B2: somatostatin TSE II (dsDNA)
DNA 1: GATCTCAGTAATAATCATGCAG
DNA 2: CTGCATGATTATTACTGAGATC
B3: rat insulin I P-Box (dsDNA)
DNA 1: CTTAATGGGCCAAACGGCA
DNA 2: TGCCGTTTGGCCCATTAAG
B4: rat insulin I FLAT (E2) (dsDNA)
DNA 1: TTAATAATCTAATTACCC
DNA 2: GGGTAATTAGATTATTAA

Columns and labels:
[1] = molecular target: T1, ITF-1 full length (CMV expression) (rat, UniProt P52947 SEQ:1-283); experiment: cell_activity; TSE I somatostatin reporter in HeLa cells
T1 sequence (P52947 whole entry): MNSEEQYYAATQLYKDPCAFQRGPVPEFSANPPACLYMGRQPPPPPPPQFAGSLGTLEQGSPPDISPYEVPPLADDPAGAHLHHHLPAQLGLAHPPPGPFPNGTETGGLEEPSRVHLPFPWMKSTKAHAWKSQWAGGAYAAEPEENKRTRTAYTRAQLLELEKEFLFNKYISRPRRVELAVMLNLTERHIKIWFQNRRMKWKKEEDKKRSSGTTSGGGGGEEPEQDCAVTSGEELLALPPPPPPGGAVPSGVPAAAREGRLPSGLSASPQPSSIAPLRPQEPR

[2] = molecular target: T1, ITF-1 full length (CMV expression); experiment: cell_activity; TSE II somatostatin reporter in HeLa cells
[3] = molecular target: ITF-1 fragment aa 124-283 (thrombin-cleaved from GST fusion) (rat, UniProt P52947 SEQ:124-283); experiment: footprint; DNase I; also bound in EMSA; settings: tags: GST removed by thrombin
Sequence of ITF-1 fragment aa 124-283 (thrombin-cleaved from GST fusion) (P52947 124-283): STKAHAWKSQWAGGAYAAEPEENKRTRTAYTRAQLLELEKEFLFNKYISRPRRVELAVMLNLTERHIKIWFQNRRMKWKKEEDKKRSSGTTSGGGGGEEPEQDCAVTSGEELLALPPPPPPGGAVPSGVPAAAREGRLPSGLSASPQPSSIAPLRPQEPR

| Binder | binding result [3] | other results |
| --- | --- | --- |
| B1 | – | activity [1]: ~12 fold |
| B2 | – | activity [2]: ~12 fold |
| B3 | binds | – |
| B4 | binds | – |
